Data on one sequence can be found in article PMC4545359.

The series has as its target T1, CRP-His6 (cAMP receptor protein) (Vibrio cholerae C6706) (UniProt O34015).
T1 sequence: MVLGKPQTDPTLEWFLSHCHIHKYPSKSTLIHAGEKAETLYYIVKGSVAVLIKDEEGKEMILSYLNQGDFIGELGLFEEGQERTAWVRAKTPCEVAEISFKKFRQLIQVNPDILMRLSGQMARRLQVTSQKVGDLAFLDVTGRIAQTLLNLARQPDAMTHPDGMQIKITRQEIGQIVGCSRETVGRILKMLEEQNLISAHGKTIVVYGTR
Kind of series: EMSA. The note with it: 10 mM Tris pH 7.5, 1 mM EDTA, 100 mM KCl, 0.1 mM DTT, 5% glycerol, 0.01 mg/ml BSA; CRP 11 ng/ul, promoter DNA 2.5 ng/ul, 75 ng NS DNA; 1 h at room temperature …. (A gel shift assay detects complexes by their altered migration in electrophoresis.)

With “CAGTGGATTAGCGTATGGACACGGCTACGTTTCCGCAGTGGAAAACGGTGTCGCCGAAGGACGTGTCACCTTGTGTAAATTTGCCGCTAACGGCACTGGAAAAAAAAACACTCACTGTGGCGCGATTCAATAC (double strand) [non-specific control 133 bp fragment (NS)]”, the binding entry is listed as “no binding”.
